Read-outs that look alike come from different tables or passages of the source.
How the values were obtained:
Test in all cases: cell-based or functional assay
[1] = molecular target: SARS-CoV-2 spike (S) protein, Omicron BA.2.75 (SARS-CoV-2) (UniProt P0DTC2)
[2] = molecular target: SARS-CoV-2 spike (S) protein, Omicron BJ.1 (SARS-CoV-2) (UniProt P0DTC2)
[3] = molecular target: SARS-CoV-2 spike (S) protein, Omicron BA.2.75 (SARS-CoV-2) (UniProt P0DTC2); remark: listed apart in the source
[4] = molecular target: SARS-CoV-2 spike (S) protein, Omicron BA.4/5 (SARS-CoV-2) (UniProt P0DTC2)
[5] = molecular target: SARS-CoV-2 spike (S) protein, Omicron BA.4.6 (SARS-CoV-2) (UniProt P0DTC2)
[6] = molecular target: SARS-CoV-2 spike (S) protein, Omicron BA.2.75.2 (SARS-CoV-2) (UniProt P0DTC2)
[7] = molecular target: SARS-CoV-2 spike (S) protein, Omicron BA.2 (SARS-CoV-2) (UniProt P0DTC2)
[8] = molecular target: SARS-CoV-2 spike (S) protein, Omicron BA.2.3.20 (SARS-CoV-2) (UniProt P0DTC2)
[9] = molecular target: SARS-CoV-2 Omicron BA.1 spike (S) protein of the live isolate (SARS-CoV-2) (UniProt P0DTC2)
[10] = molecular target: SARS-CoV-2 spike (S) protein, Omicron BA.4/5 (SARS-CoV-2) (UniProt P0DTC2); remark: listed apart in the source
[11] = molecular target: SARS-CoV-2 Victoria spike (S) protein (SARS-CoV-2) (UniProt P0DTC2)
[12] = molecular target: SARS-CoV-2 Delta spike (S) protein (SARS-CoV-2) (UniProt P0DTC2)
[13] = molecular target: SARS-CoV-2 Omicron BA.1.1 spike (S) protein (SARS-CoV-2) (UniProt P0DTC2)
[14] = molecular target: SARS-CoV-2 Beta spike (S) protein (SARS-CoV-2) (UniProt P0DTC2)
[15] = molecular target: SARS-CoV-2 spike (S) protein, Victoria strain (SARS-CoV-2) (UniProt P0DTC2)
[16] = molecular target: SARS-CoV-2 spike (S) protein, Omicron BA.3 (SARS-CoV-2) (UniProt P0DTC2)
[17] = molecular target: SARS-CoV-2 spike (S) protein, Omicron BA.1.1 (SARS-CoV-2) (UniProt P0DTC2)
[18] = molecular target: SARS-CoV-2 spike (S) protein, Omicron BA.4.6 (SARS-CoV-2) (UniProt P0DTC2); remark: listed apart in the source
[19] = molecular target: SARS-CoV-2 Alpha spike (S) protein (SARS-CoV-2) (UniProt P0DTC2)
[20] = molecular target: SARS-CoV-2 spike (S) protein, Omicron BA.2 (SARS-CoV-2) (UniProt P0DTC2); remark: listed apart in the source
[21] = molecular target: SARS-CoV-2 Gamma spike (S) protein (SARS-CoV-2) (UniProt P0DTC2)
[22] = molecular target: SARS-CoV-2 spike (S) protein, Omicron BA.1 (SARS-CoV-2) (UniProt P0DTC2)
[23] = molecular target: SARS-CoV-2 Omicron BA.2 spike (S) protein (SARS-CoV-2) (UniProt P0DTC2)
[24] = molecular target: SARS-CoV-2 spike (S) protein, Victoria strain (SARS-CoV-2) (UniProt P0DTC2); remark: listed apart in the source

ADG20 (antibody) was tested, and the pseudovirus neutralisation IC50 [1] was > 10 µg/mL, the IC50, pseudoviral neutralization [2] was > 10 µg/mL and the IC50, pseudoviral neutralization [3] was > 10 µg/mL. The IC50, pseudoviral neutralization [4] was > 10 µg/mL, the IC50, pseudoviral neutralization [5] was > 10 µg/mL and the IC50, pseudoviral neutralization [6] was > 10 µg/mL. For the same substance, the IC50, pseudoviral neutralization [7] was > 10 µg/mL, the IC50, pseudoviral neutralization [8] was > 10 µg/mL and the IC50, authentic virus neutralization [9] was 1.1 µg/mL. The IC50, pseudoviral neutralization [10] was > 10 µg/mL, the pseudovirus neutralisation IC50 [10] was > 10 µg/mL and the IC50, authentic virus neutralization [11] was 0.004 µg/mL. The IC50, authentic virus neutralization [12] was 0.006 µg/mL, the IC50, authentic virus neutralization [13] was 1.27 µg/mL and the IC50, authentic virus neutralization [14] was 0.01 µg/mL. The IC50, pseudoviral neutralization [15] was 0.003 µg/mL, the pseudovirus neutralisation IC50 [15] was 0.003 µg/mL and the IC50, pseudoviral neutralization [16] was > 10 µg/mL. For the same substance, the pseudovirus neutralisation IC50 [16] was > 10 µg/mL, the IC50, pseudoviral neutralization [17] was 0.253 µg/mL and the pseudovirus neutralisation IC50 [17] was 0.253 µg/mL. For the same substance, the IC50, pseudoviral neutralization [18] was > 10 µg/mL, the IC50, authentic virus neutralization [19] was 0.006 µg/mL and the IC50, pseudoviral neutralization [20] was > 10 µg/mL. For the same substance, the pseudovirus neutralisation IC50 [20] was > 10 µg/mL, the IC50, authentic virus neutralization [21] was 0.009 µg/mL and the IC50, pseudoviral neutralization [22] was 0.348 µg/mL. The pseudovirus neutralisation IC50 [22] was 0.348 µg/mL and the IC50, authentic virus neutralization [23] was > 10 µg/mL.

For AZD1061 (antibody), the pseudovirus neutralisation IC50 [1] was 0.021 µg/mL, the IC50, pseudoviral neutralization [2] was > 10 µg/mL and the IC50, pseudoviral neutralization [3] was 0.021 µg/mL. For the same substance, the IC50, pseudoviral neutralization [4] was 0.015 µg/mL, the IC50, pseudoviral neutralization [24] was 0.002 µg/mL and the IC50, pseudoviral neutralization [5] was > 10 µg/mL. For the same substance, the IC50, pseudoviral neutralization [6] was > 10 µg/mL, the IC50, pseudoviral neutralization [7] was 0.008 µg/mL and the IC50, pseudoviral neutralization [8] was > 10 µg/mL. For the same substance, the IC50, authentic virus neutralization [9] was 3.49 µg/mL, the IC50, pseudoviral neutralization [10] was 0.015 µg/mL and the pseudovirus neutralisation IC50 [10] was 0.015 µg/mL. The IC50, authentic virus neutralization [11] was 0.013 µg/mL, the IC50, authentic virus neutralization [12] was 0.038 µg/mL and the IC50, authentic virus neutralization [13] was > 10 µg/mL. For the same substance, the IC50, authentic virus neutralization [14] was 0.014 µg/mL, the IC50, pseudoviral neutralization [15] was 0.002 µg/mL and the pseudovirus neutralisation IC50 [15] was 0.002 µg/mL. The IC50, pseudoviral neutralization [16] was 0.019 µg/mL, the pseudovirus neutralisation IC50 [16] was 0.019 µg/mL and the IC50, pseudoviral neutralization [17] was > 10 µg/mL. For the same substance, the pseudovirus neutralisation IC50 [17] was > 10 µg/mL, the IC50, pseudoviral neutralization [18] was > 10 µg/mL and the IC50, authentic virus neutralization [19] was 0.012 µg/mL. It also gave an IC50, pseudoviral neutralization [20] of 0.008 µg/mL, a pseudovirus neutralisation IC50 [20] of 0.008 µg/mL and an IC50, authentic virus neutralization [21] of 0.007 µg/mL. The IC50, pseudoviral neutralization [22] was 0.308 µg/mL, the pseudovirus neutralisation IC50 [22] was 0.308 µg/mL and the IC50, authentic virus neutralization [23] was 0.028 µg/mL.

In the case of Ly-CoV555 (antibody), the pseudovirus neutralisation IC50 [1] is reported as > 10 µg/mL, the IC50, pseudoviral neutralization [2] is reported as > 10 µg/mL and the IC50, pseudoviral neutralization [3] is reported as > 10 µg/mL. For the same substance, the IC50, pseudoviral neutralization [4] was > 10 µg/mL, the IC50, pseudoviral neutralization [24] was 0.002 µg/mL and the IC50, pseudoviral neutralization [5] was > 10 µg/mL. For the same substance, the IC50, pseudoviral neutralization [6] was > 10 µg/mL, the IC50, pseudoviral neutralization [7] was > 10 µg/mL and the IC50, pseudoviral neutralization [8] was > 10 µg/mL. For the same substance, the IC50, pseudoviral neutralization [10] was > 10 µg/mL, the pseudovirus neutralisation IC50 [10] was > 10 µg/mL and the IC50, pseudoviral neutralization [15] was 0.002 µg/mL. The pseudovirus neutralisation IC50 [15] was 0.002 µg/mL, the IC50, pseudoviral neutralization [16] was > 10 µg/mL and the pseudovirus neutralisation IC50 [16] was > 10 µg/mL. For the same substance, the IC50, pseudoviral neutralization [17] was > 10 µg/mL, the pseudovirus neutralisation IC50 [17] was > 10 µg/mL and the IC50, pseudoviral neutralization [18] was > 10 µg/mL. The IC50, pseudoviral neutralization [20] was > 10 µg/mL, the pseudovirus neutralisation IC50 [20] was > 10 µg/mL and the IC50, pseudoviral neutralization [22] was > 10 µg/mL. For the same substance, the pseudovirus neutralisation IC50 [22] was > 10 µg/mL.

In the case of REGN10933 (antibody), the pseudovirus neutralisation IC50 [1] is reported as > 10 µg/mL, the IC50, pseudoviral neutralization [2] is reported as > 10 µg/mL and the IC50, pseudoviral neutralization [3] is reported as > 10 µg/mL. For the same substance, the IC50, pseudoviral neutralization [4] was > 10 µg/mL, the IC50, pseudoviral neutralization [24] was 0.001 µg/mL and the IC50, pseudoviral neutralization [5] was > 10 µg/mL. For the same substance, the IC50, pseudoviral neutralization [6] was > 10 µg/mL, the IC50, pseudoviral neutralization [7] was > 10 µg/mL and the IC50, pseudoviral neutralization [8] was 8.62 µg/mL. For the same substance, the IC50, authentic virus neutralization [9] was > 10 µg/mL, the IC50, pseudoviral neutralization [10] was > 10 µg/mL and the pseudovirus neutralisation IC50 [10] was > 10 µg/mL. For the same substance, the IC50, authentic virus neutralization [11] was 0.004 µg/mL, the IC50, authentic virus neutralization [12] was 0.003 µg/mL and the IC50, authentic virus neutralization [13] was > 10 µg/mL. It also gave an IC50, authentic virus neutralization [14] of 3.28 µg/mL, an IC50, pseudoviral neutralization [15] of 0.001 µg/mL and a pseudovirus neutralisation IC50 [15] of 0.001 µg/mL. The IC50, pseudoviral neutralization [16] was > 10 µg/mL, the pseudovirus neutralisation IC50 [16] was > 10 µg/mL and the IC50, pseudoviral neutralization [17] was > 10 µg/mL. The pseudovirus neutralisation IC50 [17] was > 10 µg/mL, the IC50, pseudoviral neutralization [18] was > 10 µg/mL and the IC50, authentic virus neutralization [19] was 0.014 µg/mL. For the same substance, the IC50, pseudoviral neutralization [20] was > 10 µg/mL, the pseudovirus neutralisation IC50 [20] was > 10 µg/mL and the IC50, authentic virus neutralization [21] was 6.18 µg/mL. For the same substance, the IC50, pseudoviral neutralization [22] was > 10 µg/mL, the pseudovirus neutralisation IC50 [22] was > 10 µg/mL and the IC50, authentic virus neutralization [23] was > 10 µg/mL.

In the case of REGN10987 (antibody), the pseudovirus neutralisation IC50 [1] is reported as > 10 µg/mL, the IC50, pseudoviral neutralization [2] is reported as > 10 µg/mL and the IC50, pseudoviral neutralization [3] is reported as > 10 µg/mL. The IC50, pseudoviral neutralization [4] was > 10 µg/mL, the IC50, pseudoviral neutralization [24] was 0.002 µg/mL and the IC50, pseudoviral neutralization [5] was > 10 µg/mL. The IC50, pseudoviral neutralization [6] was > 10 µg/mL, the IC50, pseudoviral neutralization [7] was 0.615 µg/mL and the IC50, pseudoviral neutralization [8] was > 10 µg/mL. The IC50, authentic virus neutralization [9] was > 10 µg/mL, the IC50, pseudoviral neutralization [10] was > 10 µg/mL and the pseudovirus neutralisation IC50 [10] was > 10 µg/mL. The IC50, authentic virus neutralization [11] was 0.032 µg/mL, the IC50, authentic virus neutralization [12] was 0.017 µg/mL and the IC50, authentic virus neutralization [13] was > 10 µg/mL. For the same substance, the IC50, authentic virus neutralization [14] was 0.007 µg/mL, the IC50, pseudoviral neutralization [15] was 0.002 µg/mL and the pseudovirus neutralisation IC50 [15] was 0.002 µg/mL. For the same substance, the IC50, pseudoviral neutralization [16] was > 10 µg/mL, the pseudovirus neutralisation IC50 [16] was > 10 µg/mL and the IC50, pseudoviral neutralization [17] was > 10 µg/mL. For the same substance, the pseudovirus neutralisation IC50 [17] was > 10 µg/mL, the IC50, pseudoviral neutralization [18] was > 10 µg/mL and the IC50, authentic virus neutralization [19] was 0.028 µg/mL. For the same substance, the IC50, pseudoviral neutralization [20] was 0.616 µg/mL, the pseudovirus neutralisation IC50 [20] was 0.616 µg/mL and the IC50, authentic virus neutralization [21] was 0.013 µg/mL. The IC50, pseudoviral neutralization [22] was > 10 µg/mL, the pseudovirus neutralisation IC50 [22] was > 10 µg/mL and the IC50, authentic virus neutralization [23] was 1.85 µg/mL.
